The supplement of paper PMC7877785
± gives the uncertainty stated by the source.

Experiment: self-splicing fitness, log relative to wild type (ln ratio); higher = more splicing; Tetrahymena group I intron in knt gene, E. coli kanamycin selection, DiMSum; sequences stand for … in CUCUCU…GGAGGGAAAAGUUAUCAGGCAUGCACCUGGUAGCUAGUCUUUAAACCAAUAGAUUGCAUCGGUUUAAAAGGCAAGACCGUCAAAUUGCGGGAAAGGGGUCAACAGCCGUUCAGUACCAAGUCUCAGGGGAAACUUUGAGAUGGCCUUGCAAAGGGUAUGGUAAUAAGCUGACGGACAUGGUCCUAACCACGCAGCCAAGUCCUAAGUCAACAGAUCUUCUGUUGAUAUGGAUGCAGUUCACAGACUAAAUGUCGGUCGGGGAAGAUGUAUUCUUCUCAUAAGAUAUAGUCGGACCUCUCCUUAAUGGGAGCUAGCGGAUGAAGUGAUGCAACACUGGAGCCGCUGGGAACUAAUUUGUAUGCGAAAGUAUAUUGAUUAGUUUUGGAGUACUCGUGGUCG
How it was run: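 Colonies from six replicate transformations of E. coli BL21(DE3) were pooled and amplicon-sequenced on an Illumina HiSeq 2500. The library placed an intron with all eight P1ex-region nucleotides randomised inside the knt kanamycin-resistance gene on pET-22b(+), and cells grew overnight at 37°C or 30°C on LB agar with or without 25 μg/mL kanamycin (plus 100 μg/mL carbenicillin, 50 μM IPTG, 0.2% rhamnose). Fitness is the DiMSum error-weighted combination of wild-type-normalised replicate fold changes, kanamycin versus none.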

Row | Sequence | self-splicing fitness (ln) (30 °C) | self-splicing fitness (ln) (37 °C)
1 | AGUGAGCAAUAUUACGUCGU | -3.79 ± 0.2 | -2.07 ± 0.14
2 | AGUGAGCAAUAUUACGUUGC | -3.28 ± 0.2 | -2.18 ± 0.24
3 | AGUUAGCAAUAUUACGAAAC | – | -0.856 ± 0.39
4 | AGUUAGCAAUAUUACGACAA | -0.124 ± 0.18 | -0.562 ± 0.18
5 | AGUUAGCAAUAUUACGACAC | -0.65 ± 0.12 | 0.204 ± 0.2
6 | AGUUAGCAAUAUUACGAGAG | -3.75 ± 0.29 | -2.24 ± 0.22
7 | AGUUAGCAAUAUUACGAGGC | -3.83 ± 0.27 | -3.27 ± 0.23
8 | AGUUAGCAAUAUUACGCCAU | -3.41 ± 0.21 | -1.53 ± 0.14
9 | AGUUAGCAAUAUUACGCCCA | -1.44 ± 0.32 | -0.867 ± 0.33
10 | AGUUAGCAAUAUUACGCGCU | -3.13 ± 0.21 | -2.4 ± 0.31
11 | AGUUAGCAAUAUUACGGAGG | -2.91 ± 0.3 | -2.13 ± 0.41
12 | AGUUAGCAAUAUUACGGGAC | -3.33 ± 0.26 | -0.241 ± 0.12
13 | AGUUAGCAAUAUUACGGUGU | -3.11 ± 0.21 | -1.73 ± 0.21
14 | AGUUAGCAAUAUUACGGUUC | -3.52 ± 0.28 | -2.11 ± 0.27
15 | AGUUAGCAAUAUUACGUACG | -0.205 ± 0.18 | 0.0821 ± 0.19
16 | AGUUAGCAAUAUUACGUAGC | -3.86 ± 0.26 | -0.803 ± 0.14
17 | AGUUAGCAAUAUUACGUGCG | -0.586 ± 0.082 | -0.00484 ± 0.093
18 | AGUUAGCAAUAUUACGUGGG | -4 ± 0.29 | -3.07 ± 0.31
19 | AGUUAGCAAUAUUACGUGUA | -2.26 ± 0.23 | -0.97 ± 0.15
20 | AGUUAGCAAUAUUACGUUAU | -3.25 ± 0.17 | -2.08 ± 0.17
21 | AUAAAGCAAUAUUACGAACG | -0.309 ± 0.082 | -0.0989 ± 0.11
22 | AUAAAGCAAUAUUACGAAGA | -2.47 ± 0.15 | -1.17 ± 0.18
23 | AUAAAGCAAUAUUACGAAGG | -2.1 ± 0.081 | -1.41 ± 0.12
24 | AUAAAGCAAUAUUACGACGG | -1.66 ± 0.096 | -0.375 ± 0.12

Row | Sequence | self-splicing fitness (ln) (30 °C) | self-splicing fitness (ln) (37 °C)
25 | AUAAAGCAAUAUUACGAGCC | -0.929 ± 0.14 | -1.35 ± 0.19
26 | AUAAAGCAAUAUUACGAUCC | -1.21 ± 0.2 | -0.716 ± 0.22
27 | AUAAAGCAAUAUUACGAUGU | -0.252 ± 0.072 | 0.28 ± 0.099
28 | AUAAAGCAAUAUUACGCAAC | -1.38 ± 0.13 | -1.34 ± 0.21
29 | AUAAAGCAAUAUUACGCACA | 0.246 ± 0.1 | 0.202 ± 0.15
30 | AUAAAGCAAUAUUACGCACU | 0.366 ± 0.11 | 0.662 ± 0.11
31 | AUAAAGCAAUAUUACGCGAA | -1.19 ± 0.088 | -0.188 ± 0.1
32 | AUAAAGCAAUAUUACGCGGC | -2.79 ± 0.21 | -0.109 ± 0.19
33 | AUAAAGCAAUAUUACGCUGA | -1.27 ± 0.082 | -0.907 ± 0.15
34 | AUAAAGCAAUAUUACGGAAA | -1.11 ± 0.11 | -1.12 ± 0.18
35 | AUAAAGCAAUAUUACGGACA | -0.148 ± 0.094 | 0.131 ± 0.13
36 | AUAAAGCAAUAUUACGGACG | -0.505 ± 0.11 | -0.793 ± 0.13
37 | AUAAAGCAAUAUUACGGGAG | -1.52 ± 0.11 | -1.23 ± 0.14
38 | AUAAAGCAAUAUUACGGGCG | -0.028 ± 0.097 | -0.567 ± 0.1
39 | AUAAAGCAAUAUUACGGUGC | -1.95 ± 0.1 | -0.743 ± 0.13
40 | AUAAAGCAAUAUUACGUAAA | -2.39 ± 0.11 | -1.03 ± 0.12
41 | AUAAAGCAAUAUUACGUACG | -0.889 ± 0.095 | -0.0766 ± 0.13
42 | AUAAAGCAAUAUUACGUAGC | -3.74 ± 0.27 | -1.26 ± 0.2
43 | AUAAAGCAAUAUUACGUCUA | 0.308 ± 0.078 | 0.497 ± 0.099
44 | AUAAAGCAAUAUUACGUUAG | -1.33 ± 0.067 | -0.504 ± 0.088
45 | AUAAAGCAAUAUUACGUUCU | 0.0113 ± 0.08 | 0.404 ± 0.12
46 | AUAAAGCAAUAUUACGUUUC | -3.83 ± 0.23 | -2.64 ± 0.33
47 | AUACAGCAAUAUUACGAAGG | -3.3 ± 0.24 | -2.87 ± 0.28
48 | AUACAGCAAUAUUACGACCG | -1.22 ± 0.096 | -0.49 ± 0.1

Row | Sequence | self-splicing fitness (ln) (30 °C) | self-splicing fitness (ln) (37 °C)
49 | AUACAGCAAUAUUACGACUC | -0.976 ± 0.086 | 0.311 ± 0.11
50 | AUACAGCAAUAUUACGAGCA | -2.04 ± 0.24 | -1.91 ± 0.23
51 | AUACAGCAAUAUUACGAUGU | -0.929 ± 0.076 | -0.0117 ± 0.089
52 | AUACAGCAAUAUUACGCAUA | -1.54 ± 0.12 | -0.743 ± 0.13
53 | AUACAGCAAUAUUACGCCAC | -3.08 ± 0.24 | -3.12 ± 0.32
54 | AUACAGCAAUAUUACGCCUU | -0.541 ± 0.06 | -0.208 ± 0.073
55 | AUACAGCAAUAUUACGCUUU | -3.04 ± 0.18 | -1.64 ± 0.15
56 | AUACAGCAAUAUUACGGAAC | -3.46 ± 0.43 | -1.67 ± 0.35
57 | AUACAGCAAUAUUACGGACG | -1.61 ± 0.091 | -1.04 ± 0.098
58 | AUACAGCAAUAUUACGGAGC | -3.27 ± 0.28 | -2.78 ± 0.26
59 | AUACAGCAAUAUUACGGCCU | -0.505 ± 0.093 | 0.263 ± 0.1
60 | AUACAGCAAUAUUACGGCUG | -1.95 ± 0.13 | -2.6 ± 0.23
61 | AUACAGCAAUAUUACGGUAC | -4.13 ± 0.3 | -2.2 ± 0.18
62 | AUACAGCAAUAUUACGGUAG | -1.54 ± 0.075 | -0.891 ± 0.087
63 | AUACAGCAAUAUUACGGUAU | -3.46 ± 0.18 | -2.99 ± 0.2
64 | AUACAGCAAUAUUACGGUUG | -2.35 ± 0.097 | -0.364 ± 0.093
65 | AUACAGCAAUAUUACGUCAU | -1.53 ± 0.084 | -0.888 ± 0.088
66 | AUACAGCAAUAUUACGUCGG | -2.35 ± 0.13 | -2.13 ± 0.17
67 | AUACAGCAAUAUUACGUCUG | -2.93 ± 0.083 | -1.4 ± 0.08
68 | AUACAGCAAUAUUACGUGGA | -3.06 ± 0.12 | -2.47 ± 0.12
69 | AUACAGCAAUAUUACGUGGG | -3.45 ± 0.15 | -1.53 ± 0.12
70 | AUACAGCAAUAUUACGUUAG | -3.13 ± 0.15 | -2.12 ± 0.17
71 | AUACAGCAAUAUUACGUUAU | -3.44 ± 0.13 | -2.04 ± 0.1
72 | AUAGAGCAAUAUUACGAAAG | -3.24 ± 0.2 | -2.05 ± 0.22

Row | Sequence | self-splicing fitness (ln) (30 °C) | self-splicing fitness (ln) (37 °C)
73 | AUAGAGCAAUAUUACGAAGA | -1.28 ± 0.38 | –
74 | AUAGAGCAAUAUUACGAAGU | -0.306 ± 0.1 | -0.662 ± 0.14
75 | AUAGAGCAAUAUUACGAAUC | -3.82 ± 0.25 | -2.63 ± 0.3
76 | AUAGAGCAAUAUUACGAAUG | -3.68 ± 0.19 | -1.96 ± 0.17
77 | AUAGAGCAAUAUUACGACAA | -1.04 ± 0.07 | -0.291 ± 0.092
78 | AUAGAGCAAUAUUACGAGAA | – | -1.82 ± 0.32
79 | AUAGAGCAAUAUUACGAUGU | -0.266 ± 0.067 | 0.423 ± 0.095
80 | AUAGAGCAAUAUUACGCGUA | -0.662 ± 0.1 | -0.524 ± 0.13
81 | AUAGAGCAAUAUUACGCUAC | -2.79 ± 0.2 | -2.36 ± 0.2
82 | AUAGAGCAAUAUUACGCUCG | -0.665 ± 0.41 | 0.704 ± 0.38
83 | AUAGAGCAAUAUUACGGAAA | -2.73 ± 0.22 | -2.19 ± 0.38
84 | AUAGAGCAAUAUUACGGCGA | -0.73 ± 0.059 | 0.0474 ± 0.076
85 | AUAGAGCAAUAUUACGGGAU | -1.54 ± 0.11 | -1.87 ± 0.2
86 | AUAGAGCAAUAUUACGGUAC | -3.74 ± 0.32 | -1.55 ± 0.23
87 | AUAGAGCAAUAUUACGUACA | -1.62 ± 0.098 | -0.944 ± 0.12
88 | AUAGAGCAAUAUUACGUGUC | -2.81 ± 0.33 | -2.17 ± 0.36
89 | AUAGAGCAAUAUUACGUGUU | -3.73 ± 0.19 | -2.38 ± 0.18
90 | AUAGAGCAAUAUUACGUUAC | -1.38 ± 0.19 | -1.37 ± 0.3
91 | AUAGAGCAAUAUUACGUUUU | -1.43 ± 0.084 | -1.3 ± 0.14
92 | AUAUAGCAAUAUUACGACGC | -1.91 ± 0.27 | -0.93 ± 0.29
93 | AUAUAGCAAUAUUACGAUAU | -1.87 ± 0.13 | -1.33 ± 0.13
94 | AUAUAGCAAUAUUACGAUUG | -2.96 ± 0.18 | -3.2 ± 0.4
95 | AUAUAGCAAUAUUACGAUUU | -0.24 ± 0.095 | 0.694 ± 0.12
96 | AUAUAGCAAUAUUACGCACG | -1.54 ± 0.23 | -0.439 ± 0.21
